koff data for one molecule are collected here from US20210214444A1 (TAYU HUAXIA BIOTECH MEDICAL GROUP, published 2021).

The experiment deals with hPD-L1 (Fortebio Octet assay of Example 3) (human, UniProt Q9NZQ7 19-238, limits assumed). The experiment is described as follows: BLI, Fortebio Octet; format not stated. For orientation: Biolayer interferometry detects binding as a change in optical thickness at a sensor tip.
Sequence of hPD-L1 (Fortebio Octet assay of Example 3) (Q9NZQ7 19-238 limits assumed): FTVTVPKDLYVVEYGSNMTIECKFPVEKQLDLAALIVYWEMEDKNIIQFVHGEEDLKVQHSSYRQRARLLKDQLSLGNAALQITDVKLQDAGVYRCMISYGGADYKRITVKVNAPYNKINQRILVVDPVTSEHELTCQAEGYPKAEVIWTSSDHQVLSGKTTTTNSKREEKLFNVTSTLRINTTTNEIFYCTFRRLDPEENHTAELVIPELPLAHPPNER

B1: humanized anti-hPD-L1 antibody variant 2 (antibody, V domains shown)
VH: QVQLVQSGAEVKKPGASVKVSCKASGFNIKDTYMYWVRQAPGQGLEWMGRIDPANDNTKYAQKFQGRVTITADTSTSTAYMELSSLRSEDTAVYYCARAKNLLNYFDYWGQGTLVTVSS
VL: DIQMTQSPSSLSASVGDRVTITCRASQEISGYLSWLQQKPGKAPKRLIYATSTLQSGVPSRFSGSRSGTDYTLTISSLQPEDFATYYCLQYAIYPLTFGQGTKLEIKR
notes: Human IgG1; also called Humanized VH 1 + Humanized VL2; anti-PD-L1 IgG1
As for B1, the koff – broadly, the rate constant with which the complex falls apart – is 2.72e-05 s⁻¹.
